Test results published in publication PMC4002122 (Chemical Research in Toxicology, 2014).

How the values were obtained:
UGT1A9 = molecular target: T1, UGT1A9 (Homo sapiens, UniProt O60656); settings: cited from earlier work; for Km: affinity of UGT1A9 for tRes and natural analogs
T1 sequence (O60656 26-530): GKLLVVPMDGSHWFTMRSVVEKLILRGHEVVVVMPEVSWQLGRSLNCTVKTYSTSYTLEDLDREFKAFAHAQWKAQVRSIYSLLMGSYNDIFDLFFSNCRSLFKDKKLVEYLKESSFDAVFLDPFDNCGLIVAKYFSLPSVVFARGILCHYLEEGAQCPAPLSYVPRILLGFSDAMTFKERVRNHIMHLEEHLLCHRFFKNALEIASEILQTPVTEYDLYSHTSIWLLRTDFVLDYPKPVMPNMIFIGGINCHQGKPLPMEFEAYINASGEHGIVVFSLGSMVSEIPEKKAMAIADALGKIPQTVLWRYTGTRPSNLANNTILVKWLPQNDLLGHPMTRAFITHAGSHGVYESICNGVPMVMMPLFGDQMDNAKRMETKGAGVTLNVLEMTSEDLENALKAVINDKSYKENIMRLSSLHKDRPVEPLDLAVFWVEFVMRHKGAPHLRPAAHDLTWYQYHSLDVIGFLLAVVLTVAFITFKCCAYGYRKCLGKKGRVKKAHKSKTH

UGT1A1 = molecular target: T2, UGT1A1 (Homo sapiens, UniProt P22309); settings: tRes-3-O-glucuronidation; cited from earlier work
T2 sequence (P22309 26-533): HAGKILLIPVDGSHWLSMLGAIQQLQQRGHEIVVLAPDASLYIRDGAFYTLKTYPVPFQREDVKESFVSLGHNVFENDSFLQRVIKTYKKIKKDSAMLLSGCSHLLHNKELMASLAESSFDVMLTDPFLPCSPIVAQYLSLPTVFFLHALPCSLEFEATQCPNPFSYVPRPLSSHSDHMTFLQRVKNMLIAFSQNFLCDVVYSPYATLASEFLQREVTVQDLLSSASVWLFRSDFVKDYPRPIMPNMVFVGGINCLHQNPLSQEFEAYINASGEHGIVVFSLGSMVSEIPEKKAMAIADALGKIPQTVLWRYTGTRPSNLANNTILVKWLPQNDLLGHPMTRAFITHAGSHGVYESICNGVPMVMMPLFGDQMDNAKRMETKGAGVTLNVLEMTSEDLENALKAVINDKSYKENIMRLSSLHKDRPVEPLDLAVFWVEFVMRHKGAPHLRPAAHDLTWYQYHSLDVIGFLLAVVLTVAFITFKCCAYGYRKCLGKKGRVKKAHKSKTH

[1] = substrate: COc1ccc(C=Cc2cc(OC)cc(OC)c2/C=N/O)cc1; experiment: Steady state kinetics of glucuronidation by recombinant UGT1A1; type: in vitro ADME, human; settings: other: NI-ST-05–N–O-gluc formation; estimated based on an incomplete data set
[2] = substrate: COc1ccc(C=Cc2cc(OC)cc(OC)c2/C=N/O)cc1; experiment: Steady state kinetics of glucuronidation by recombinant UGT1A10; type: in vitro ADME, human; settings: other: NI-ST-05–N–O-gluc formation; Hill equation (S50)
[3] = substrate: COc1ccc(/C=C(/C(=O)O)c2cc(OC)c(OC)c(OC)c2)cc1O; experiment: as above; type: in vitro ADME, human; settings: other: NI-12a-O-gluc formation; UDP-GlcUA 3 mM, 60 min, 37 °C
[4] = substrate: COc1ccc(/C=C(/C(=O)O)c2cc(OC)c(OC)c(OC)c2)cc1O; experiment: Steady state kinetics of glucuronidation by recombinant UGT1A7; type: in vitro ADME, human; settings: other: NI-12a-O-gluc formation, UDP-GlcUA 3 mM, 60 min, 37 °C
[5] = substrate: COc1ccc(/C=C(/C(=O)O)c2cc(OC)c(OC)c(OC)c2)cc1O; experiment: Steady state kinetics of glucuronidation by recombinant UGT1A8; type: in vitro ADME, human; settings: other: NI-12a-O-gluc formation, UDP-GlcUA 3 mM, 60 min, 37 °C
[6] = substrate: COc1ccc(/C=C(/C(=O)O)c2cc(OC)c(OC)c(OC)c2)cc1O; experiment: Steady state kinetics of glucuronidation by recombinant UGT1A9; type: in vitro ADME, human; settings: other: NI-12a-O-gluc formation, UDP-GlcUA 3 mM, 60 min, 37 °C

For `CC(C)/C=C/c1c(O)cc(/C=C/c2ccc(O)cc2)cc1O` [tA3], which Km (UGT1A9) is on record?
Its Km is 21 µM.

What does the source list for `Oc1ccc(/C=C/c2cc(O)cc(O)c2)cc1` [tRes, trans-3,5,4′-trihydroxystilbene]?
Km (UGT1A9): 2.5 µM; Vmax (UGT1A9; tRes-3-O-glucuronide formation): 2.5 nmol/mg/min; Vmax (UGT1A1): 31 nmol/mg/min

For trans-arachidin-1 [tA1], which Km (UGT1A9) is on record?
Its Km is 190 µM.

B1: UGT1A1 (Homo sapiens) (protein)
chain: HAGKILLIPVDGSHWLSMLGAIQQLQQRGHEIVVLAPDASLYIRDGAFYTLKTYPVPFQREDVKESFVSLGHNVFENDSFLQRVIKTYKKIKKDSAMLLSGCSHLLHNKELMASLAESSFDVMLTDPFLPCSPIVAQYLSLPTVFFLHALPCSLEFEATQCPNPFSYVPRPLSSHSDHMTFLQRVKNMLIAFSQNFLCDVVYSPYATLASEFLQREVTVQDLLSSASVWLFRSDFVKDYPRPIMPNMVFVGGINCLHQNPLSQEFEAYINASGEHGIVVFSLGSMVSEIPEKKAMAIADALGKIPQTVLWRYTGTRPSNLANNTILVKWLPQNDLLGHPMTRAFITHAGSHGVYESICNGVPMVMMPLFGDQMDNAKRMETKGAGVTLNVLEMTSEDLENALKAVINDKSYKENIMRLSSLHKDRPVEPLDLAVFWVEFVMRHKGAPHLRPAAHDLTWYQYHSLDVIGFLLAVVLTVAFITFKCCAYGYRKCLGKKGRVKKAHKSKTH
With B1 as the molecule, how does the Vmax [1] read?
Its Vmax is 0.00021 ± 2e-05 µmol/min/mg.

B2: UGT1A10 (Homo sapiens) (protein)
chain: GKLLVVPMDGSHWFTMQSVVEKLILRGHEVVVVMPEVSWQLERSLNCTVKTYSTSYTLEDQNREFMVFAHAQWKAQAQSIFSLLMSSSSGFLDLFFSHCRSLFNDRKLVEYLKESSFDAVFLDPFDTCGLIVAKYFSLPSVVFTRGIFCHHLEEGAQCPAPLSYVPNDLLGFSDAMTFKERVWNHIVHLEDHLFCQYLFRNALEIASEILQTPVTAYDLYSHTSIWLLRTDFVLDYPKPVMPNMIFIGGINCHQGKPLPMEFEAYINASGEHGIVVFSLGSMVSEIPEKKAMAIADALGKIPQTVLWRYTGTRPSNLANNTILVKWLPQNDLLGHPMTRAFITHAGSHGVYESICNGVPMVMMPLFGDQMDNAKRMETKGAGVTLNVLEMTSEDLENALKAVINDKSYKENIMRLSSLHKDRPVEPLDLAVFWVEFVMRHKGAPHLRPAAHDLTWYQYHSLDVIGFLLAVVLTVAFITFKCCAYGYRKCLGKKGRVKKAHKSKTH
With B2 as the molecule, how does the K0.5 [2] read?
The K0.5 was 6.2 ± 0.35 µM.

And the Vmax [2]?
The Vmax was 0.00065 µmol/min/mg.

And the Vmax/Km [2]?
The Vmax/Km was 105 µL/min/mg.

And the Km [3]?
Its Km is 500 ± 75 µM.

What about the Vmax [3] of the same molecule?
The Vmax was 3.5 ± 0.24 nmol/mg/min.

And the Vmax/Km [3]?
Its Vmax/Km is 7 µL/min/mg.

B3: UGT1A7 (Homo sapiens) (protein)
chain: GKLLVVPMDGSHWFTMQSVVEKLILRGHEVVVVMPEVSWQLGRSLNCTVKTYSTSYTLEDQDREFMVFADARWTAPLRSAFSLLTSSSNGIFDLFFSNCRSLFNDRKLVEYLKESCFDAVFLDPFDACGLIVAKYFSLPSVVFARGIFCHYLEEGAQCPAPLSYVPRLLLGFSDAMTFKERVWNHIMHLEEHLFCPYFFKNVLEIASEILQTPVTAYDLYSHTSIWLLRTDFVLEYPKPVMPNMIFIGGINCHQGKPVPMEFEAYINASGEHGIVVFSLGSMVSEIPEKKAMAIADALGKIPQTVLWRYTGTRPSNLANNTILVKWLPQNDLLGHPMTRAFITHAGSHGVYESICNGVPMVMMPLFGDQMDNAKRMETKGAGVTLNVLEMTSEDLENALKAVINDKSYKENIMRLSSLHKDRPVEPLDLAVFWVEFVMRHKGAPHLRPAAHDLTWYQYHSLDVIGFLLAVVLTVAFITFKCCAYGYRKCLGKKGRVKKAHKSKTH
Which results are given for B3?
Km [4]: 62 ± 43 µM; Vmax [4]: 2.2 ± 0.77 nmol/mg/min; Vmax/Km [4]: 35 µL/min/mg

B4: UGT1A8 (Homo sapiens) (protein)
chain: GKLLVVPMDGSHWFTMQSVVEKLILRGHEVVVVMPEVSWQLGKSLNCTVKTYSTSYTLEDLDREFMDFADAQWKAQVRSLFSLFLSSSNGFFNLFFSHCRSLFNDRKLVEYLKESSFDAVFLDPFDACGLIVAKYFSLPSVVFARGIACHYLEEGAQCPAPLSYVPRILLGFSDAMTFKERVRNHIMHLEEHLFCQYFSKNALEIASEILQTPVTAYDLYSHTSIWLLRTDFVLDYPKPVMPNMIFIGGINCHQGKPLPMEFEAYINASGEHGIVVFSLGSMVSEIPEKKAMAIADALGKIPQTVLWRYTGTRPSNLANNTILVKWLPQNDLLGHPMTRAFITHAGSHGVYESICNGVPMVMMPLFGDQMDNAKRMETKGAGVTLNVLEMTSEDLENALKAVINDKSYKENIMRLSSLHKDRPVEPLDLAVFWVEFVMRHKGAPHLRPAAHDLTWYQYHSLDVIGFLLAVVLTVAFITFKCCAYGYRKCLGKKGRVKKAHKSKTH
What does the source list for B4?
Km [5]: 240 ± 76 µM; Vmax [5]: 6.0 ± 1.3 nmol/mg/min; Vmax/Km [5]: 25 µL/min/mg

B5: UGT1A9 (Homo sapiens) (protein)
chain: GKLLVVPMDGSHWFTMRSVVEKLILRGHEVVVVMPEVSWQLGRSLNCTVKTYSTSYTLEDLDREFKAFAHAQWKAQVRSIYSLLMGSYNDIFDLFFSNCRSLFKDKKLVEYLKESSFDAVFLDPFDNCGLIVAKYFSLPSVVFARGILCHYLEEGAQCPAPLSYVPRILLGFSDAMTFKERVRNHIMHLEEHLLCHRFFKNALEIASEILQTPVTEYDLYSHTSIWLLRTDFVLDYPKPVMPNMIFIGGINCHQGKPLPMEFEAYINASGEHGIVVFSLGSMVSEIPEKKAMAIADALGKIPQTVLWRYTGTRPSNLANNTILVKWLPQNDLLGHPMTRAFITHAGSHGVYESICNGVPMVMMPLFGDQMDNAKRMETKGAGVTLNVLEMTSEDLENALKAVINDKSYKENIMRLSSLHKDRPVEPLDLAVFWVEFVMRHKGAPHLRPAAHDLTWYQYHSLDVIGFLLAVVLTVAFITFKCCAYGYRKCLGKKGRVKKAHKSKTH
For B5, which Km [6] is on record?
The Km was 240 ± 40 µM.

What about the Vmax [6] of the same molecule?
The Vmax was 0.0083 µmol/min/mg.

What about the Vmax/Km [6] of the same molecule?
The Vmax/Km was 35 µL/min/mg.
